In paper PMC11464722 (Nature Communications, 2024):

Columns and labels:
[1] = biological target: SNAP-tagged murine µOR on HEK293 cells (murine, UniProt P42866, SNAP-Lumi4-Tb (terbium cryptate) on the SNAP tag); assay: AlphaScreen or HTRF
[2] = biological target: murine κ-opioid receptor, ssf-tagged, on HEK293 cells (Mus musculus (Mouse)., UniProt P33534); assay: flow cytometry on cells
[3] = biological target: murine nociceptin opioid receptor, ssf-tagged, on HEK293 cells (Mus musculus (Mouse)., UniProt P35377); assay: flow cytometry on cells
Sequence of murine nociceptin opioid receptor, ssf-tagged, on HEK293 cells (P35377 whole entry): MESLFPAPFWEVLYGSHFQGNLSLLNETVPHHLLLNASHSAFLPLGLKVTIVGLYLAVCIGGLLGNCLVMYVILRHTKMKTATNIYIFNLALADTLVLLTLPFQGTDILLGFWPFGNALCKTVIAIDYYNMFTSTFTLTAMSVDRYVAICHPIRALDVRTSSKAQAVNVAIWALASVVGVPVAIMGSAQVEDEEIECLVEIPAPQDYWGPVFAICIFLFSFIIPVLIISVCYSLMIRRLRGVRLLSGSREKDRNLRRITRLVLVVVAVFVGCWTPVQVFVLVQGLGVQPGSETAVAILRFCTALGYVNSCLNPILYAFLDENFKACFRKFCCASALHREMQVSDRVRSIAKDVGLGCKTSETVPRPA

[4] = biological target: human μ-opioid receptor, ssf-tagged, on HEK293 cells (Homo sapiens (Human)., UniProt P35372); assay: immunostaining of cells or tissue
Sequence of human μ-opioid receptor, ssf-tagged, on HEK293 cells (P35372 whole entry): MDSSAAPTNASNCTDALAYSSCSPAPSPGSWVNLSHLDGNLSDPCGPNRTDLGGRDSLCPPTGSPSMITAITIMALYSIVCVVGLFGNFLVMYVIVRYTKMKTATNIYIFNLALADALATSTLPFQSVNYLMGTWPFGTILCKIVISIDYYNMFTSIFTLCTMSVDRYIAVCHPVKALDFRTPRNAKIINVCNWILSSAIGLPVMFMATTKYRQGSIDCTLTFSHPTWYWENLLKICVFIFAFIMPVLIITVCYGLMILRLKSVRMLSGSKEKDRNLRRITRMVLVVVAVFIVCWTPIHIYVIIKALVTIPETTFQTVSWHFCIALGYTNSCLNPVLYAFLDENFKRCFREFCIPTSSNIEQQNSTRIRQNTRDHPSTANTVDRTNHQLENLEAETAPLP

[5] = biological target: SNAP-tagged murine µOR on HEK293 cells (murine, UniProt P42866 1-398); assay: AlphaScreen or HTRF
Sequence of SNAP-tagged murine µOR on HEK293 cells (murine, UniProt P42866 1-398) (P42866 whole entry): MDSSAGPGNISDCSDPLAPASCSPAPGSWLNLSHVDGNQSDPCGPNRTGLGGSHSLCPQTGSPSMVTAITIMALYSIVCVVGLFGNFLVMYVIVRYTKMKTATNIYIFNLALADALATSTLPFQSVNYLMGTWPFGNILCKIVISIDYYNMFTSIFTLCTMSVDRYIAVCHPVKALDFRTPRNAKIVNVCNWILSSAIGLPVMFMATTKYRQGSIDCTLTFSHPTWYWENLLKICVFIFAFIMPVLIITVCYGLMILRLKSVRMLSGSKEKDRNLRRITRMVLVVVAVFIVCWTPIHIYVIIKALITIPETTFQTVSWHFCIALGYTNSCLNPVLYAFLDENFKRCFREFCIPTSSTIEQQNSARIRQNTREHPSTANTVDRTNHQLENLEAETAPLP

Sequence of SNAP-tagged murine µOR on HEK293 cells (murine, UniProt P42866, SNAP-Lumi4-Tb (terbium cryptate) on the SNAP tag) (P42866 whole entry): as above
Sequence of murine κ-opioid receptor, ssf-tagged, on HEK293 cells (P33534 whole entry): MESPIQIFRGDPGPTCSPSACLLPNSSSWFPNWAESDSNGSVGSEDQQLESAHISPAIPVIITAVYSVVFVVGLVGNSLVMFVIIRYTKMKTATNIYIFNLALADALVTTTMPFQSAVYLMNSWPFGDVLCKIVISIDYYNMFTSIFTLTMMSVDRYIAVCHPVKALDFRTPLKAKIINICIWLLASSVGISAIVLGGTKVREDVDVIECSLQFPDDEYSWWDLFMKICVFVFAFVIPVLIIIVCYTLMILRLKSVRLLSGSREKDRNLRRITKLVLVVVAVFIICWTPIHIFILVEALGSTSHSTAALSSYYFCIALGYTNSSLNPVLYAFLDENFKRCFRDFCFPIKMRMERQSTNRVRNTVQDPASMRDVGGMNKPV

B1: NbE (NbE-6xHis, unlabeled) (VHH)
VHH: QVQLVESGGGLVQAGGSLRLSCAASGSISSISTMGWYRQAPGNERELVAAITSGGSTNYADSVKGRFTISRDNAKNTVYLQMNSLKPEDTAVYYCNFKYYSGSYFYKSEYDYWGQGTQVTVSS
[1]
  Ki: 18 nM

B2: NbE conjugated with Alexa Fluor 488 (VHH)
VHH: QVQLVESGGGLVQAGGSLRLSCAASGSISSISTMGWYRQAPGNERELVAAITSGGSTNYADSVKGRFTISRDNAKNTVYLQMNSLKPEDTAVYYCNFKYYSGSYFYKSEYDYWGQGTQVTVSS
[2]
  binding result: no binding (tested: 10 μM)
[3]
  binding result: no binding (tested: 10 μM)

B3: HA-tagged NbE (VHH)
VHH: QVQLVESGGGLVQAGGSLRLSCAASGSISSISTMGWYRQAPGNERELVAAITSGGSTNYADSVKGRFTISRDNAKNTVYLQMNSLKPEDTAVYYCNFKYYSGSYFYKSEYDYWGQGTQVTVSS
[4]
  binding result: binds

## KYYSGSYFYKSEYD [linear peptide 6 (NbE CDR3 residues 100-113, 14 residues)]
[5]
  Ki: 3100 nM

## Ac-YYSGSYFYKSEY-NH2 [linear peptide 5 (NbE CDR3, 12 residues)]
[5]
  Ki: 1300 nM
